Assay results taken from patent publication US20140086835A1 (UNIVERSITY OF NORTH CAROLINA AT CHAPEL HILL, published 2014).

Biological target: T1, recombinant human PSMA (extracellular domain) (human, UniProt Q04609 44-750)
T1 construct: extracellular domain; Bought (R&D Systems); Amine-coupled to a CM5 chip; also called prostate specific membrane antigen
Assay: SPR (BIAcore 2000), PSMA on CM5 chip, 1:1 Langmuir fit

T1 sequence (Q04609 44-750): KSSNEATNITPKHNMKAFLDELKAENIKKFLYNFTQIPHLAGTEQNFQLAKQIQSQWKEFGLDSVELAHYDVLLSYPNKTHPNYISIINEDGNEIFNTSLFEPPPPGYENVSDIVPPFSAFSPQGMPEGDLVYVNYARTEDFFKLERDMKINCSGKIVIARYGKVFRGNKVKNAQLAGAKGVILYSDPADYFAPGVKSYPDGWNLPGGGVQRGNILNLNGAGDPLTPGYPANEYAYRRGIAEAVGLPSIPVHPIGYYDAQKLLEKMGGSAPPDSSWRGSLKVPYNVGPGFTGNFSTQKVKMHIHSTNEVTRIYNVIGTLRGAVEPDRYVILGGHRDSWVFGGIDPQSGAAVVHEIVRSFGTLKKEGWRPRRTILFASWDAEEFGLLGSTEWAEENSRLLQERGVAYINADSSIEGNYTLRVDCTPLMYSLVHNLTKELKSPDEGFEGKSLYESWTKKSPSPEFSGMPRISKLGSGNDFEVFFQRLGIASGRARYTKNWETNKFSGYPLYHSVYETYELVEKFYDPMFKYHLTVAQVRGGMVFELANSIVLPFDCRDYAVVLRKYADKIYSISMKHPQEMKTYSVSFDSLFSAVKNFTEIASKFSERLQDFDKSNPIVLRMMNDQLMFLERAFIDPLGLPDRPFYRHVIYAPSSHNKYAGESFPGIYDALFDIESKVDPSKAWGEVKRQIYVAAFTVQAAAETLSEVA

B1: heptameric PSMA-binding peptide targeting ligand (designed binder)
chain: MWQPDTAHHWATLGPQPQPKPQPKPEPEPQPQGGMPPRPLDVLNRSLKSPVIVRLKGGREFRGTLDGYDIHMNLVLLDAEEIQNGEVVRKVGSVVIRGDTVVFVSPAPGGEHHHHHH
notes: Self-assembled homoheptamer; also called PSMA-Heptamer; P^PSMA heptamer
**Q.** Which Kd does the source give for B1 here?
**A.** 20 nM

**Q.** And the koff?
**A.** 1.09e-06 s⁻¹
